The assay concerns mutant form of α-Gal A expressed in HEK-293 cells. Nature of the assay: HEK assay (GLP HEK / Migalastat Amenability Assay): α-Gal A activity in lysates of transiently transfected HEK-293 cells incubated with or without 10 μM migalastat. As to conditions: for Absolute increase (% WT): 10 μM migalastat versus baseline; for 10 μM migalastat α-Gal A activity (% WT): 5 days; for 10 μM migalastat α-Gal A activity (% WT) / Baseline α-Gal A activity (% WT): percentage of baseline wild-type α-Gal A activity; for 10 μM migalastat α-Gal A activity (% WT) / 10 μM migalastat α-Gal A activity / Baseline α-Gal A activity (% WT) / Baseline α-Gal A activity: mean ± SEM; for 10 μM migalastat α-Gal A activity / Baseline α-Gal A activity: lysates of HEK-293 cells transfected with the mutant form; for 10 μM migalastat α-Gal A activity: incubated 5 days with 10 μM migalastat; for Relative increase: 10 μM migalastat α-Gal A activity relative to baseline; for Baseline α-Gal A activity: incubated 5 days in the absence of migalastat. In kind it is cell-based, human. An outline of the steps:
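Activity reported as 4-MU released (nmol/mg/hr), mean±SEM, from lysates of transiently transfected HEK-293 cells expressing mutant α-Gal A, cultured with or without 10 μM migalastat.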

6 molecules from US11833164B2, “Methods of treating Fabry disease in patients having a mutation in the GLA gene” (Amicus Therapeutics, Inc., priority 2019, dated 2023) can be followed below.

B1: G147A (protein)
chain: MQLRNPELHLGCALALRFLALVSWDIPGARALDNGLARTPTMGWLHWERFMCNLDCQEEPDSCISEKLFMEMAELMVSEGWKDAGYEYLCIDDCWMAPQRDSEGRLQADPQRFPHGIRQLANYVHSKGLKLGIYADVGNKTCAGFPASFGYYDIDAQTFADWGVDLLKFDGCYCDSLENLADGYKHMSLALNRTGRSIVYSCEWPLYMWPFQKPNYTEIRQYCNHWRNFADIDDSWKSIKSILDWTSFNQERIVDVAGPGGWNDPDMLVIGNFGLSWNQQVTQMALWAIMAAPLFMSNDLRHISPQAKALLQDKDVIAINQDPLGKQGYQLRQGDNFEVWERPLSGLAWAVAMINRQEIGGPRSYTIAVASLGKGVACNPACFITQLLPVKRKLGFYEWTSRLRSHINPTGTVLLQLENTMQMSLKDLL
B1: the “Absolute increase (% WT)” value came out at 3.0 % WT, the “10 μM migalastat α-Gal A activity (% WT)” value is recorded as 3 ± 0.2 % WT and the “10 μM migalastat α-Gal A activity” value was 1159 ± 74 nmol/mg/h. In addition, the “Baseline α-Gal A activity (nmol/mg/hr)” value (absence of migalastat, mean activity below the limit of detection (<142 nmol/mg/hr)) is “BLD (“BLD” indicates that the mean α-Gal A activity was below the limit of detection (<142 nmol/mg/hr))”.

B2: S148C (protein)
chain: MQLRNPELHLGCALALRFLALVSWDIPGARALDNGLARTPTMGWLHWERFMCNLDCQEEPDSCISEKLFMEMAELMVSEGWKDAGYEYLCIDDCWMAPQRDSEGRLQADPQRFPHGIRQLANYVHSKGLKLGIYADVGNKTCAGFPGCFGYYDIDAQTFADWGVDLLKFDGCYCDSLENLADGYKHMSLALNRTGRSIVYSCEWPLYMWPFQKPNYTEIRQYCNHWRNFADIDDSWKSIKSILDWTSFNQERIVDVAGPGGWNDPDMLVIGNFGLSWNQQVTQMALWAIMAAPLFMSNDLRHISPQAKALLQDKDVIAINQDPLGKQGYQLRQGDNFEVWERPLSGLAWAVAMINRQEIGGPRSYTIAVASLGKGVACNPACFITQLLPVKRKLGFYEWTSRLRSHINPTGTVLLQLENTMQMSLKDLL
Turning to B2, the “Absolute increase (% WT)” value came out at 19.3 % WT, the Relative increase amounted to 1.6, the “10 μM migalastat α-Gal A activity (% WT)” value is 49.5 ± 2 % WT and the “Baseline α-Gal A activity” value came out at 11927 ± 1020 nmol/mg/h. The “10 μM migalastat α-Gal A activity” value was determined as 19343 ± 919 nmol/mg/h. The “Baseline α-Gal A activity (% WT)” value (absence of migalastat) is 30.2 ± 2.2 % WT.

B3: F149C (protein)
chain: MQLRNPELHLGCALALRFLALVSWDIPGARALDNGLARTPTMGWLHWERFMCNLDCQEEPDSCISEKLFMEMAELMVSEGWKDAGYEYLCIDDCWMAPQRDSEGRLQADPQRFPHGIRQLANYVHSKGLKLGIYADVGNKTCAGFPGSCGYYDIDAQTFADWGVDLLKFDGCYCDSLENLADGYKHMSLALNRTGRSIVYSCEWPLYMWPFQKPNYTEIRQYCNHWRNFADIDDSWKSIKSILDWTSFNQERIVDVAGPGGWNDPDMLVIGNFGLSWNQQVTQMALWAIMAAPLFMSNDLRHISPQAKALLQDKDVIAINQDPLGKQGYQLRQGDNFEVWERPLSGLAWAVAMINRQEIGGPRSYTIAVASLGKGVACNPACFITQLLPVKRKLGFYEWTSRLRSHINPTGTVLLQLENTMQMSLKDLL
As for B3, the “Absolute increase (% WT)” value was 13.9 % WT, the Relative increase worked out at 1.3, the “10 μM migalastat α-Gal A activity (% WT)” value stood at 60.9 ± 6.4 % WT and the “Baseline α-Gal A activity” value came out at 15198 ± 1188 nmol/mg/h. Moreover, the “10 μM migalastat α-Gal A activity” value is 19032 ± 1272 nmol/mg/h. The “Baseline α-Gal A activity (% WT)” value (absence of migalastat) was found to be 47 ± 4.4 % WT.

B4: G150E (protein)
chain: MQLRNPELHLGCALALRFLALVSWDIPGARALDNGLARTPTMGWLHWERFMCNLDCQEEPDSCISEKLFMEMAELMVSEGWKDAGYEYLCIDDCWMAPQRDSEGRLQADPQRFPHGIRQLANYVHSKGLKLGIYADVGNKTCAGFPGSFEYYDIDAQTFADWGVDLLKFDGCYCDSLENLADGYKHMSLALNRTGRSIVYSCEWPLYMWPFQKPNYTEIRQYCNHWRNFADIDDSWKSIKSILDWTSFNQERIVDVAGPGGWNDPDMLVIGNFGLSWNQQVTQMALWAIMAAPLFMSNDLRHISPQAKALLQDKDVIAINQDPLGKQGYQLRQGDNFEVWERPLSGLAWAVAMINRQEIGGPRSYTIAVASLGKGVACNPACFITQLLPVKRKLGFYEWTSRLRSHINPTGTVLLQLENTMQMSLKDLL
With B4, the “Absolute increase (% WT)” value was 12.3 % WT, the Relative increase was determined as 1.2, the “10 μM migalastat α-Gal A activity (% WT)” value is reported as 73.8 ± 7 % WT and the “Baseline α-Gal A activity” value was determined as 18804 ± 1070 nmol/mg/h. The “10 μM migalastat α-Gal A activity” value worked out at 22710 ± 1059 nmol/mg/h. Moreover, the “Baseline α-Gal A activity (% WT)” value (absence of migalastat) turned out to be 61.5 ± 6.6 % WT.

B5: S148G (protein)
chain: MQLRNPELHLGCALALRFLALVSWDIPGARALDNGLARTPTMGWLHWERFMCNLDCQEEPDSCISEKLFMEMAELMVSEGWKDAGYEYLCIDDCWMAPQRDSEGRLQADPQRFPHGIRQLANYVHSKGLKLGIYADVGNKTCAGFPGGFGYYDIDAQTFADWGVDLLKFDGCYCDSLENLADGYKHMSLALNRTGRSIVYSCEWPLYMWPFQKPNYTEIRQYCNHWRNFADIDDSWKSIKSILDWTSFNQERIVDVAGPGGWNDPDMLVIGNFGLSWNQQVTQMALWAIMAAPLFMSNDLRHISPQAKALLQDKDVIAINQDPLGKQGYQLRQGDNFEVWERPLSGLAWAVAMINRQEIGGPRSYTIAVASLGKGVACNPACFITQLLPVKRKLGFYEWTSRLRSHINPTGTVLLQLENTMQMSLKDLL
For the molecule B5, the “Absolute increase (% WT)” value came out at 11.8 % WT, the Relative increase is 11.2, the “10 μM migalastat α-Gal A activity (% WT)” value is listed as 12.9 ± 1 % WT and the “Baseline α-Gal A activity” value is 435 ± 55 nmol/mg/h. The “10 μM migalastat α-Gal A activity” value amounted to 4879 ± 263 nmol/mg/h. The “Baseline α-Gal A activity (% WT)” value (absence of migalastat) was 1.1 ± 0.1 % WT.

B6: S148T (protein)
chain: MQLRNPELHLGCALALRFLALVSWDIPGARALDNGLARTPTMGWLHWERFMCNLDCQEEPDSCISEKLFMEMAELMVSEGWKDAGYEYLCIDDCWMAPQRDSEGRLQADPQRFPHGIRQLANYVHSKGLKLGIYADVGNKTCAGFPGTFGYYDIDAQTFADWGVDLLKFDGCYCDSLENLADGYKHMSLALNRTGRSIVYSCEWPLYMWPFQKPNYTEIRQYCNHWRNFADIDDSWKSIKSILDWTSFNQERIVDVAGPGGWNDPDMLVIGNFGLSWNQQVTQMALWAIMAAPLFMSNDLRHISPQAKALLQDKDVIAINQDPLGKQGYQLRQGDNFEVWERPLSGLAWAVAMINRQEIGGPRSYTIAVASLGKGVACNPACFITQLLPVKRKLGFYEWTSRLRSHINPTGTVLLQLENTMQMSLKDLL
As for B6, the “Absolute increase (% WT)” value turned out to be 15.9 % WT, the Relative increase is reported as 1.2, the “10 μM migalastat α-Gal A activity (% WT)” value turned out to be 82.4 ± 3.7 % WT and the “Baseline α-Gal A activity” value is 24827 ± 1221 nmol/mg/h. For the same molecule, the “10 μM migalastat α-Gal A activity” value was determined as 30620 ± 813 nmol/mg/h. Besides, where the note is “absence of migalastat”, the “Baseline α-Gal A activity (% WT)” value was 66.5 ± 3.8 % WT.
